Test results reported in patent publication US20250375530A1 (ALMAC DISCOVERY, published 2025).

Experiments:
[1] = molecular target: T1, mouse ROR1-Fc (CHO) (mouse); assay: ELISA, mROR1-hFc coated
T1 construct: also called mROR1-hFc; mROR1

[2] = molecular target: T2, human ROR1-Fc (CHO) (human); assay: ELISA, plate coated with human ROR1-hFc, HisMyc-tagged VNAR at a single 5 ug/mL, Abs 450 nm; no blank bar shown
T2 construct: also called hROR1-Fc; huROR1-Fc

[3] = molecular target: T2, human ROR1-Fc (CHO); assay: ELISA dose response, plate coated with hROR1-Fc, HisMyc-tagged VNAR 0-5 ug/mL (linear axis), Abs 450 nm
[4] = molecular target: T2, human ROR1-Fc (CHO); assay: BLI, hROR1; MMAE conjugate

T2 sequence (chain, as listed by the source limits assumed): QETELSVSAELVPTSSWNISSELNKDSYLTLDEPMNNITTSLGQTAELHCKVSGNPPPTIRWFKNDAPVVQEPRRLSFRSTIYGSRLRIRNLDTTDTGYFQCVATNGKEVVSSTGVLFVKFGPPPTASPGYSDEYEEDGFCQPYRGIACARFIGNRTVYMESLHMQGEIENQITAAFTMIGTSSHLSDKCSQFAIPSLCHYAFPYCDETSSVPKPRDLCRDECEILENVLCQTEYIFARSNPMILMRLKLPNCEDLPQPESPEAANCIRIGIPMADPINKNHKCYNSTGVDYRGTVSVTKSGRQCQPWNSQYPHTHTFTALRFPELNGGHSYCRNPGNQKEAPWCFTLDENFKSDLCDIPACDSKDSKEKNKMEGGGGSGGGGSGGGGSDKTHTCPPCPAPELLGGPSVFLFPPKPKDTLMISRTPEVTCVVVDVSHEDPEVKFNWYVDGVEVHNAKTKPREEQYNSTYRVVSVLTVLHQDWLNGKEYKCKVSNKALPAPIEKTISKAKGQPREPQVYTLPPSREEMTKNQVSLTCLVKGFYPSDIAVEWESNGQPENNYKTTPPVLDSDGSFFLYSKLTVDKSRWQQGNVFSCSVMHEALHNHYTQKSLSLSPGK
T1 sequence (chain, as listed by the source limits assumed): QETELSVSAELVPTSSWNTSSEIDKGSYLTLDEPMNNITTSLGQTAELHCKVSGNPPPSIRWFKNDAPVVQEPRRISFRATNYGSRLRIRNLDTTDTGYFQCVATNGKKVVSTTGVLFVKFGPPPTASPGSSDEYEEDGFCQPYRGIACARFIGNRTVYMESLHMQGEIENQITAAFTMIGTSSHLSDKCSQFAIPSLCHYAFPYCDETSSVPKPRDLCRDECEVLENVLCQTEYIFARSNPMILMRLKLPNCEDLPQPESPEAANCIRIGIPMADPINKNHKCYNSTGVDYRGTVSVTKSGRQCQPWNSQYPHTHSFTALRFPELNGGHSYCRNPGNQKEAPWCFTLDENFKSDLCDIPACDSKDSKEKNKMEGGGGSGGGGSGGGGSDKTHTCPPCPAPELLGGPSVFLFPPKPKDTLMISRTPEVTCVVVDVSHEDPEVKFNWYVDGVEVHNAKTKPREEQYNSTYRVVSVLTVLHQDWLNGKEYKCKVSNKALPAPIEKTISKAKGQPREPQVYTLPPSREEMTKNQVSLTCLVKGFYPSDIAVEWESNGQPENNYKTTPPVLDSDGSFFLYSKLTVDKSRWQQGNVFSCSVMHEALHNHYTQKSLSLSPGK

| Binder | binding result [1] | binding result [2] | binding result [3] | Kd [4] |
| --- | --- | --- | --- | --- |
| P3A1 G1 AE3.S (VNAR, VNAR; entry includes the HisMyc tag) VNAR: TRVDQSPSSLSASVGDRVTITCVLTGTRYGLYSSTYWYRKNPGSSDEERISISGRYSESVNKGTKSFTLTISSLQPEDSATYYCRAREARHPWLRQWYDGAGTKVEIKQ | binds | binds |  |  |
| G3CP G4-P3A1G1AE3 MA-vc-PAB-MMAE conjugate (Cys linker) (VNAR, not shown: small tags and cut ends, MA-vc-PAB-MMAE on the single cysteine of the linker PGVQPCPGGGGGS, DAR 1.0) TRVDQSPSSLSASVGDRVTITCVLTDANYGLAATYWYRKNPGSSNKERISISGRYSESVNKGTMSFTLTISSLQPEDSATYYCRAYPWGAGAPYNVQWYDGAGTKVEIKPGVQPCPGGGGGSTRVDQSPSSLSASVGDRVTITCVLTGTRYGLYSTYWYRKNPGSSDEERISISGRYSESVNKGTKSFTLTISSLQPEDSATYYCRAREARHPWLRQWYDGAGTKVEIK |  |  |  | 0.76 nM |

The remaining lines, values ahead:

| binding result [1] | binding result [2] | binding result [3] | Kd [4] | Binder |
| --- | --- | --- | --- | --- |
|  |  | binds |  | P3A1 G1 NAG8.S (VNAR, VNAR; entry includes the HisMyc tag) VNAR: TRVDQSPSSLSASVGDRVTITCVLTGTKYGLYASTYWYRKNPGSPNKDRMIIGGRYSESVNNGTKSFTLTISSLQPEDSATYYCRAREARHPWLRQWYDGAGTKVEIKQ |
| binds | binds |  |  | P3A1 G1 NAC6.S (VNAR, VNAR; entry includes the HisMyc tag) VNAR: TRVDQSPSSLSASVGDRVTITCVLTDTRYALYSSTYWYRKNPGSTDEERISIGGRYSESVNKGSKSFTLTISSLQPEDSATYYCRAREARHPWLRQWYDGAGTKVEIKQ |
|  |  | binds |  | P3A1 G1 AF7.S (VNAR, VNAR; entry includes the HisMyc tag) VNAR: TRVDQSPSSLSASVGDRVTITCVLTGTKYGLYASTYWYRKNPGSTDKERIIIGGRYSESVNNRSKSFTLTISSLQPEDSATYYCRAREARHPWLRQWYDGAGTKVEIKQ |
